Reference: patent publication US20220204643A1 (published 2022)
Values belong to the binder of their own block, whether it stands above or below them.

Tests used:
[1] = target: T1, hook microtubule tethering protein 2, transcript variant 2 (human, UniProt Q96ED9 1-719); assay: protein array
T1 construct: on protein array; also called HOOK2
T1 sequence: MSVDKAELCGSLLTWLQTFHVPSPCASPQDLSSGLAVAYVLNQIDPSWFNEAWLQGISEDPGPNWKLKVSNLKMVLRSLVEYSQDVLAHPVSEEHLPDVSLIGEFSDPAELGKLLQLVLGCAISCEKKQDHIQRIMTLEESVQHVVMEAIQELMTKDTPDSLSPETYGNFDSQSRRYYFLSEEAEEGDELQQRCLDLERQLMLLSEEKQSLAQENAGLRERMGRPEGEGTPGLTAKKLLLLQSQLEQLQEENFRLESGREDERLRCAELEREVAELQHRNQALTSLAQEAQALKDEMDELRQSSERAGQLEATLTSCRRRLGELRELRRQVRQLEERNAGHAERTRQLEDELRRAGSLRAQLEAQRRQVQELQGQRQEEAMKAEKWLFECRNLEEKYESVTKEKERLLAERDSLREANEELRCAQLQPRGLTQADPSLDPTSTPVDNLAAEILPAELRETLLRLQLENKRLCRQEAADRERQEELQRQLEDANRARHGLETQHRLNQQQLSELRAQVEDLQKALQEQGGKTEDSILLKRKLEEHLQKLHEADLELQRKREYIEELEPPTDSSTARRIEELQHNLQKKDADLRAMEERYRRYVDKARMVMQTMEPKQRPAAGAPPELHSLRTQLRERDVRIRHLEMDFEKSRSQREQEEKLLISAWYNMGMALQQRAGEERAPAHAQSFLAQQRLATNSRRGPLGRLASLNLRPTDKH

[2] = target: T2, hydroxymethylbilane synthase, transcript variant X3 (human, UniProt P08397 18-361); assay: protein array
T2 construct: on protein array; also called HMBS; IAMBS
T2 sequence: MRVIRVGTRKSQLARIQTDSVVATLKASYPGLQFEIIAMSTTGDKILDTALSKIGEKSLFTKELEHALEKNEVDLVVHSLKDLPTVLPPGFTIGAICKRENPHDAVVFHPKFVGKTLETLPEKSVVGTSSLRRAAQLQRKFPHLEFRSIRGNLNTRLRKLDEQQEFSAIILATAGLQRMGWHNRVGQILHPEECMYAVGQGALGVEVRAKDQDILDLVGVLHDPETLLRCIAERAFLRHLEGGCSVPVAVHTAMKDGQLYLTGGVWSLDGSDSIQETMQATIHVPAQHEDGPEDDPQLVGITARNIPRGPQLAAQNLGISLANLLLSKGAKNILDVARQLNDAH

[3] = target: T3, DIX domain containing 1, transcript variant 2 (human, UniProt Q155Q3 220-683)
T3 construct: also called DIXDC1
T3 sequence: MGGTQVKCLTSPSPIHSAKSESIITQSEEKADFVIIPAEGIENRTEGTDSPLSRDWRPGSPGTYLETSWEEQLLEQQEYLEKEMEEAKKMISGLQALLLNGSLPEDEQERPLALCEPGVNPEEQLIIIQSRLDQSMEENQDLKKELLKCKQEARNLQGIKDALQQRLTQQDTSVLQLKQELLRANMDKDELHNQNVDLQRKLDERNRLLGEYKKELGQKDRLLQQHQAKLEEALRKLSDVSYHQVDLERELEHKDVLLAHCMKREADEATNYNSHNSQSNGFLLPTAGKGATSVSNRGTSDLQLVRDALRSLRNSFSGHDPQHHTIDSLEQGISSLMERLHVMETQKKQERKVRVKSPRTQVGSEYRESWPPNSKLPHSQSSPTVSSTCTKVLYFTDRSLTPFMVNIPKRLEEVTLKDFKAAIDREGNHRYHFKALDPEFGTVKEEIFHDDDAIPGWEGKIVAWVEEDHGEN

[4] = target: T4, methyltransferase like 21C (human, UniProt Q5VZV1 1-264); assay: protein array
T4 construct: on protein array; also called METTL21C

[5] = target: T5, RAN binding protein 10, transcript variant 1 (human, UniProt Q6VN20 2-620); assay: protein array
T5 construct: on protein array; also called RANBP10

FMR1 autosomal homolog 2 = target: T6, FMR1 autosomal homolog 2 (human, UniProt P51116 1-673); assay: protein array
T6 construct: on protein array; also called FXR2

[6] = target: T7, tripartite motif containing 35, transcript variant 1 (human, UniProt Q9UPQ4 1-493, limits assumed); assay: protein array
T7 construct: on protein array; also called TRIM35
T7 sequence: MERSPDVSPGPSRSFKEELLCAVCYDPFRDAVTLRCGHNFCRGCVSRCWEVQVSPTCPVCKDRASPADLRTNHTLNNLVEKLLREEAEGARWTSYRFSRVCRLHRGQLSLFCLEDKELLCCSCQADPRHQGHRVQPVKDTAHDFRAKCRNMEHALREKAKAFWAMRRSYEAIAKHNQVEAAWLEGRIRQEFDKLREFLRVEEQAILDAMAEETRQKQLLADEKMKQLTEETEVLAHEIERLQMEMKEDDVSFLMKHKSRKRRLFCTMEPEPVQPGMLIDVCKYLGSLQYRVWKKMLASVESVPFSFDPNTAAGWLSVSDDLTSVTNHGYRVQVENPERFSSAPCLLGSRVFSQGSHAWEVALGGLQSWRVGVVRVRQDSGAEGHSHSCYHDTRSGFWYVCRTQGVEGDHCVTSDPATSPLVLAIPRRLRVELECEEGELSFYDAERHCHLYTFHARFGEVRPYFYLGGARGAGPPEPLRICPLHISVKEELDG

[7] = target: T8, Killer cell lectin like receptor g2 (human, UniProt A4D1S0 1-409); assay: protein array
T8 construct: on protein array; also called KLRG2
T8 sequence: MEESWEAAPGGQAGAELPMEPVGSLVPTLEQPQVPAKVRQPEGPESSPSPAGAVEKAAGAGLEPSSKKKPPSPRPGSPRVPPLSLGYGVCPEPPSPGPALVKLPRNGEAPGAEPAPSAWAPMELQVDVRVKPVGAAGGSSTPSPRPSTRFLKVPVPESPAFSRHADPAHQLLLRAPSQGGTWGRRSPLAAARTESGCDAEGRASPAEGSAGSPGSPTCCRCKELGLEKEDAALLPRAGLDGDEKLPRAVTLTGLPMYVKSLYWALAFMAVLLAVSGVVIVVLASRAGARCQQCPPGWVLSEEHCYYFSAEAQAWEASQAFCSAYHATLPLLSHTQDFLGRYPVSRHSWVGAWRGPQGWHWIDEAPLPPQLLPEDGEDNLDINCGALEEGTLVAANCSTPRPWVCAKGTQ

annexin A1 = target: T9, annexin A1 (human, UniProt P04083 2-346); assay: protein array, with experimental replicate
T9 construct: on protein array; also called ANXA1
T9 sequence: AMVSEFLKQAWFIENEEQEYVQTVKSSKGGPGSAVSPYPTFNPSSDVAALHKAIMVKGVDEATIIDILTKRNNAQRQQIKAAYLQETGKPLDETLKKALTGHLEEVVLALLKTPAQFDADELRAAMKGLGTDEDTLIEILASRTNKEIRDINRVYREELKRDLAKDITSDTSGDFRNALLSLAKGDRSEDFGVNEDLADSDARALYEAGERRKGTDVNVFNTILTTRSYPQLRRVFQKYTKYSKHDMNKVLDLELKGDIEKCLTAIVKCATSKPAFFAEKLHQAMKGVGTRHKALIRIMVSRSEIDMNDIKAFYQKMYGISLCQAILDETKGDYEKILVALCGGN

[8] = target: T10, family with sequence similarity 177 member A1, transcript variant 2 (human, UniProt Q8N128 1-213); assay: protein array
T10 construct: on protein array; also called FAM177A1
T10 sequence: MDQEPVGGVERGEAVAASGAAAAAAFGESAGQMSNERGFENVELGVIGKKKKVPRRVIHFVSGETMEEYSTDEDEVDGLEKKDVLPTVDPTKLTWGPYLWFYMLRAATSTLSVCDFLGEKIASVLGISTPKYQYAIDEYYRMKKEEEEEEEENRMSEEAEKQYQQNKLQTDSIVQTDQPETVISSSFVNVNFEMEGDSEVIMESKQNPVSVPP

[9] = target: T11, olfactory receptor family 6 subfamily Q member 1 (gene/pseudogene) (human, UniProt Q8NGQ2 1-317); assay: protein array
T11 construct: on protein array; also called OR6Q1
T11 sequence: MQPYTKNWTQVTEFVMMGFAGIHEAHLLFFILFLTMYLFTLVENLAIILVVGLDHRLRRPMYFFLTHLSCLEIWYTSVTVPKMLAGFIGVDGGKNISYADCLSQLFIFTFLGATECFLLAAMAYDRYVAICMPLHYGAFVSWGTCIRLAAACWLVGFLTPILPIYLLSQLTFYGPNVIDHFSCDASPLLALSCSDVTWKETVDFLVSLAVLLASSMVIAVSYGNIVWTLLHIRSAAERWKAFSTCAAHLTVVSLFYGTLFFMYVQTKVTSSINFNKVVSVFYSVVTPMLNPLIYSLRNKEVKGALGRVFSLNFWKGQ

T4 sequence (Q5VZV1 whole entry): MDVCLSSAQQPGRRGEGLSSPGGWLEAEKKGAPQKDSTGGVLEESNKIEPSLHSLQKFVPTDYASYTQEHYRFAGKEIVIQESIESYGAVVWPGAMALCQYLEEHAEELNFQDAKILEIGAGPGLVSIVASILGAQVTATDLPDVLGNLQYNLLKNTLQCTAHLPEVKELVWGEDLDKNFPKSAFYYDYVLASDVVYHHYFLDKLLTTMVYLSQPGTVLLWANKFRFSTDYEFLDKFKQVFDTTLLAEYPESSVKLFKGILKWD
T6 sequence (P51116 whole entry Q252H): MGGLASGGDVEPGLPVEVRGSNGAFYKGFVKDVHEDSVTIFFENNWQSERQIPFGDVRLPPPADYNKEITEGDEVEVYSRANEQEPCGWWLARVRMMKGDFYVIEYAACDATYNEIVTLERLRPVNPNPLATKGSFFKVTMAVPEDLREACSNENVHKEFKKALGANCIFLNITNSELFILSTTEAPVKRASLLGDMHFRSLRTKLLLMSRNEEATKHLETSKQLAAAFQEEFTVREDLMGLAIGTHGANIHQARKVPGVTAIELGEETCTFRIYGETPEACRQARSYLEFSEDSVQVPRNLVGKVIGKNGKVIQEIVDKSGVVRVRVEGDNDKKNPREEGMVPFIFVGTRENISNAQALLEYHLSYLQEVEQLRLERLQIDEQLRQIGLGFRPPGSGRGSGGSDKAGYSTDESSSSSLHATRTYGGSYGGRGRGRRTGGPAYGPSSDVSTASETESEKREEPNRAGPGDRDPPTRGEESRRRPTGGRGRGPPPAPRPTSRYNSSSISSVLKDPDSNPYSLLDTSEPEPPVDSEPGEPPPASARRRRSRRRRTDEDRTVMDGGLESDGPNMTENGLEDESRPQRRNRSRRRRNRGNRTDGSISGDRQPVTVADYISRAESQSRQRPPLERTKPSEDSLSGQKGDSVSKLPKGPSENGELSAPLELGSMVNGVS
T5 sequence (Q6VN20 2-620 limits assumed, change not shown): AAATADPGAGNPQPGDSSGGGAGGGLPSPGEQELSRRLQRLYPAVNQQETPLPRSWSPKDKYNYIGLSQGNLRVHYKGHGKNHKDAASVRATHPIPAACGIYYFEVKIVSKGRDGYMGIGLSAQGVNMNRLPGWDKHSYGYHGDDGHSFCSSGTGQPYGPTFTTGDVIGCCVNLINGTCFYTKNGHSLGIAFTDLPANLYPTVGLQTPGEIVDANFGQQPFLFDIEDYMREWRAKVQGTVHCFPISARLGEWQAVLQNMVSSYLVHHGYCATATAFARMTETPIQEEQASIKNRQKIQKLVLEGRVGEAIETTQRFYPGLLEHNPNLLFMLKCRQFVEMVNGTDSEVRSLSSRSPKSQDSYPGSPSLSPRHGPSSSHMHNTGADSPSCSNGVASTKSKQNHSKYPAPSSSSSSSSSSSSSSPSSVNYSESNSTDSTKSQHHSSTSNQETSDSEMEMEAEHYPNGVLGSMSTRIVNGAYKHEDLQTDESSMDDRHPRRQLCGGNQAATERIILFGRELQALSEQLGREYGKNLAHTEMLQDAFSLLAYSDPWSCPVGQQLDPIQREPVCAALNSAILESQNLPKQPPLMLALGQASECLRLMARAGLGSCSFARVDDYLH

binding result [1]: binds
binding result [2]: binds
B1: TLUS1006 (antibody, V domains shown)
VH: PVHLVQSGAEVRKPGSSVKVSCMASGGSFNTYAVNWVRQAPGQGLEWMGGIIPVFGTTNYAPRFQGRVTITADESTSTVYMELTSLTSEDTAVYYCARDRDSGYERNCLDPWGQGTLVTVSS
VL: DIVMTQSPDSLAVTLGERATINCRSSQTVLYDSNNKNYLAWYQQKPGQPPKLLIYWASIRESGVPDRFSGSGSGTDFTLTINTLQAEDVAIYFCQQYFTTPRTFGQGTKVEIKR
notes: VH/VL tied via antigen in summary, not by name in this stretch

binding result [3]: binds
B2: TTES1001 (antibody, V domains shown)
VH: PVQLVQSGAEVKKPGSSVQVSCKGSGGTFSEYGISWLRQAPGQGLEWIGGIIPVLGIPNYAQKFRGRVTITADESTGSAYMEVSSLRSEDTAVYYCAREGLRLARGWFHPWGQGTLVTVTS
VL: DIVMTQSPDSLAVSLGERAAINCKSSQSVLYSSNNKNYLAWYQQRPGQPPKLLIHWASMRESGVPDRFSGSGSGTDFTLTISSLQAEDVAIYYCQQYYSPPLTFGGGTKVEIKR

binding result [4]: binds
B3: TLUS1003 (antibody, V domains shown)
VH: QVHLVQSGSEFKKPGASVKISCKTSGYTFTNYAMNWVRQAPGQGLEWVGWINTVTGIPGYAQGFTGRFIISLDTSGRTSYLQINSLQAEDTAVYYCARSGGFGWSRDLDYWGQGTLVTVSS
VL: DIVLTQSPLSLPVTPGEPASISCRSSQSLLHSNGVYYLDWYLLKPGQSPQLVIYMGSSRASGVPDRFSGSGSGTDFRLKISRVEAEDVGIYYCMQALQTPWTFGQGTKVEIKR
notes: as for B1

binding result [5]: binds
B4: TMEL1017 (antibody, V domains shown)
VH: EVQLVESGGGLVKPGGSLRLSCAASGFTFSNYNMNWVRQAPGKGLEWVSSISSSSSYIYYADSVKGRFTISRDNAKNSLYLQMNSLRAEDTAVYYCARDALDFDWLLSAGGFDYWGQGTLVTVSS
VL: ASALTQPASVSGSPGQSITISCTGTSSDVGGYNYVSWYQQHPGKAPKLMIYEVSNRPSGVSNRFSGSKSGNTASLTISGLQAEDEADYYCSSYTSSSTLVFGGGTKLTVLG
notes: as for B1

binding result (FMR1 autosomal homolog 2): binds
binding result [6]: binds
B5: TLUA1001 (antibody, V domains shown)
VH: PLQLQESGPGLVKPSETLSLTCSVSGGSIRSSAPFWGWIRQPPGKGLEWIGNIYYNGDTSYSPSLENRVTLFVDTSKNQFSLNLTSVTAADTAVYYCGRIMTPSIDLWGQGKLVTVSS
VL: EIVLTQSPGTLSLSPGERATLSCRASQSISSTYLVWYQQKPGQAPRLLIYAASYRATGIPDRFSGSGSGTDFILTISRLEPEDFAVYYCQQYGSSLTFGGGTKVEIKR
notes: as for B1
binding result [7]: binds

binding result [3]: binds
B6: TTES1010 (antibody, V domains shown)
VH: EVQLVESGGGLVQPGGSLRLSCAASGFTFSSYSMNWVRQAPGKGLEWVSYISSSSSTIYYADSVKGRFTISRDNAKNSLYLQMNSLRAEDTAVYYCASLLGGDPDYWGQGTLVTVSS
VL: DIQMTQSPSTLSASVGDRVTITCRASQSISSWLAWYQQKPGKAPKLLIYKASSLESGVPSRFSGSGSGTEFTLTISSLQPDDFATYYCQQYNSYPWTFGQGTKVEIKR

binding result (annexin A1): binds
B7: TLUA1004 (antibody, V domains shown)
VH: EVQLVESGGGLVQTGGSLRLSCSASGFTFNNYWMHWVRQAPGKGLLWLSRINTDGSRGHYDDSVQGRFTISRDNAKQTVYLQMDGLRAEDTAVYFCARDGYDFRAFDHWGQGVLVTVSS
VL: DIQMTQSPSSLSASVGDKVTMTCRASQFISVYVNWYQQKPGKAPKLLIYTASSLESGVSSRFSGGGSGTDFTLTIRSLQPEDFAIYYCQQTYSTPWTFGPGTRVEIKR
notes: as for B1

binding result [8]: binds
B8: TLUA1016 (antibody, V domains shown)
VH: EVQLLESGGALVQPGGSLRLSCAVSGLTFNRFAMTWVRQAPGKGLEWVSHIGGSGGYTYYADSVKGRFTISRDNSKNTLYLQMNSLRAEDTAVYHCVKLKGIGAMWTYAMDVWGQGTTVTVSS
VL: QSVLTQPPSVSGAPGQRVTIPCTGSSSNLGAGYAVHWYQQLPATTPKLLIYANSSRPSGVPDRFSGSRSDTSASLAITGLQAEDEADYYCQSYDSSLSGYVFGTGTWVTVLS
notes: as for B1

binding result [9]: binds
B9: TBLA1010 (antibody, V domains shown)
VH: EVQLVESGGGLVQPGRSLRLSCAASGFPFGDYAMHWVRQAPGKGLEWVSGIGWDSGGIGYADSVKGRFTISRDIAKNSLYLEINSLRPDDTALYYCAKAAATLPYFRFAMDVWGQGTPVTVSS
VL: EIVLTQSPGTLSLSPGERATLSCRASQSVSSSYLAWYQQKPGQAPRLLIFGASTRASGIPDRFSGRGSGTEFTLTISRLEPEDFAVYYCQQYDSSPFTFGPGTKVEIKR
notes: VH/VL only
